B1: nesfatin-1: satiety molecule generated by processing of the secretory protein nesfatin; human nesfatin-1 9,695 daltons (protein, UniProt P80303 25-106, looked up)
Nesfatin-1: VPIDIDKTKVQNIHPVESAKIEPPDTGLYYDEYLKQVIDVLETDKHFREKLQKADIEEIKSGRLSKELDLVSHHVRTKLDEL
modifications: Nesfatin-1
notes: satiety molecule generated by processing of the secretory protein nesfatin; human nesfatin-1 9,695 daltons

Key:
[1] = tested on: mice; test: Conditioned taste aversion preference test; type: in vivo; conditions: i.p. 0.5 ml, dose giving about 1/2 food suppression (1/4 dilution, 1/16 dilution, undiluted filtrate), FIG. 14
Description: 8. […] To define whether the appetite-suppressing effects induced by the undiluted solution of liquid component, the residual liquid containing the >3,000 component, and the filtrated liquid containing the <3,000 component were non-specific, a conditioned taste aversive test (a conditioned taste aversion preference test) was carried out in mice. For 5 days, each of mice was adapted to two bottles containing water, allowing to the drinking schedule of 2 hours per day (10:00 am to 12:00). On Day 6 of the test, each mice was allowed to drink water for 30 minutes followed by installation of 2 bottles added with saccharine solution (0.15%). Thereafter, saline, the liquid components or lithium chloride (molecular weight: 42.4 daltons) solution, each in an amount of 0.5 ml, was intraperitoneally administered to mice (n=5), and the conditions were set up as the aversion learning of the taste against saccharine solution. Subsequently, each of mice was subjected to drink for 90 minutes using 2 botties with water. […] On Day 8 of the test, the animals were allowed to drink for 30 minutes using 2 bottles with either water or saccharine solution, and the preference ratio for drinking of saccharine solution (the amounts of saccharine solution intake÷the amounts of entire water intake for 2 bottles) was calculated. […] The data are expressed as mean value±standard deviation. […]

[2] = intraperitoneal administration; cited from earlier work
[3] = tested on: rat; conditions: centrally administered to the rat ventricle; cited from earlier work

Molecule | preference intake of saccharine solution [1] | appetite suppression [2] | food intake [3]
[Cl-].[Li+] [lithium chloride] | significantly suppressed | – | –
B1 | – | induced appetite suppression in a dose-dependent manner | significantly suppressed
